Measurements as given in patent US20140241984A1.

Assays:
[1] = biological target: α-synuclein fibrils (human) (UniProt P37840); test: inhibition ELISA; fibrils against monomers
[2] = biological target: α-synuclein fibrils (human) (UniProt P37840); test: SPR, BIAcore X100; fibrils immobilised on CM5, mAb injected at 0.01-10 nM

Fold Affinity to Fibrils [1] | Kd [2] | koff [2] | kon [2] | Substance
0.476 fold | – | – | – | Syn-1 (Mouse anti-α-synuclein; BD Bioscience) (antibody)
– | 2.56 nM | 0.000422 s⁻¹ | 165000 M⁻¹ s⁻¹ | mAb 211 (Santa Cruz Biotechnology) (antibody)
